According to the nanobody polyreactivity screen of Harvey et al. (2022):

Assay: yeast display, Sf9 membrane polyspecificity reagent, FACS + sequencing; frameworks hold sequencing errors
Procedure, shortened: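 A nanobody's polyreactivity label depends on the gate it was sorted from. Yeast display cells were stained with 10% biotinylated, detergent-solubilized Sf9 membrane reagent for 1 hour at 4 °C, enriched on streptavidin microbeads and sorted by FACS. The low and high (top ~1%) gates were set on anti-HA fluorescence for expression and streptavidin fluorescence for reagent binding.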
With “QVQLVESGGGLVQAGGSLRLSCAASGFTFDKYAMGRYRQAPGKERDLDAGITRSGSTYYADSVKGRFTISRDNAKNTVYLQMNSLKPEDTAVYYCKARPRGSYNRPNYPRYYYCGQGTQVTVSS” the “polyreactivity (PSR sort gate)” value was “high polyreactivity”.
With “QVQLVESGGGLVQAGGSLRLSCAASGFTFDNYAMGWYRQAPGKERELVAAINWSGGRTYYADSVKGRFTISRDNAKNTVYLQMNSLKPEDTAVYYCAVPGYVRMDYWGQGTQVTVSS” the “polyreactivity (PSR sort gate)” value was “high polyreactivity”.
For “QVQLVESGGGLVQAGGSLRLSCAASGFTFDNYAMGWYRQAPGKERELVAAISSGGGRTYYADSVKGRFTISRDNAKNTVYLLMNSLKPEDTAVYYCAAVTLYKRYDYWGQGTQVTVSS”, the “polyreactivity (PSR sort gate)” value was “high polyreactivity”.
With “QVQLVESGGGLVQAGGSLRLSCAASGFTFDNYVMGWYRQAPGKERELVAAISKSGTSTYYADSVKGRFTISRDNAKNTVYLQMNSLKPEDTAVYYCAAALPGYGDYYYWGQGTQVTVSS” the “polyreactivity (PSR sort gate)” value was “high polyreactivity”.
For “QVQLVESGGGLVQAGGSLRLSCAASGFTFDSNAMGRYRQAPGKERELVAANSTGGSTYYADSVKGRFTISRDNAKNTVYLQMNSLKPEDTAVYYCARDPPYPDTWYGYWGQGTQVTVSS”, the “polyreactivity (PSR sort gate)” value was “low polyreactivity”.
In the case of “QVQLVESGGGLVQAGGSLRLSCAASGFTFDSYAMGWYRQAPGKERELVAAISYRGGTTYYADSVKGRFTISRDNAKNTVYLQMNSLKPEDTAVYYCATPYKYVTGEDYWGQGTQVTVSS”, the “polyreactivity (PSR sort gate)” value is reported as “high polyreactivity”.
For “QVQLVESGGGLVQAGGSLRLSCAASGFTFDTNAMGWYRLAPGKERELVAAISRIGGRPYADSVKGRFTISRDNAKNTVYLQMNSLKPEDTAVYYGAADTTGYPYGYDSWGQGTQVTVSS”, the “polyreactivity (PSR sort gate)” value was “low polyreactivity”.
With “QVQLVESGGGLVQAGGSLRLSCAASGFTFDWYAMGWYTQAPGKERELVAAITTSGGTTYYADSVKGRFTISRDNSKNNVYLKMISLKPEDPAVYFCAADYYYWYPVEKYDYCGQGTQVTVSS” the “polyreactivity (PSR sort gate)” value was “low polyreactivity”.
For “QVQLVESGGGLVQAGGSLRLSCAASGFTFDYNAMGWSRQAPGKERELVAAISYSDDSTYYADSVKGRFTISRDNAKNTVYLQMNSLKPEETAVYYCAAYFGAYGYDYWGQGSQVTVSS”, the “polyreactivity (PSR sort gate)” value was “low polyreactivity”.
In the case of “QVQLVESGGGLVQAGGSLRLSCAASGFTFDYNAMGWYRQAPGKERELVAAISASGGSTYYADSVKGRFTISRDTAKNTVYLQMNSLKPEDTAVYYCAAKRFSPQHRYDHWGQGTQVTVSS”, the “polyreactivity (PSR sort gate)” value is reported as “high polyreactivity”.
With “QVQLVESGGGLVQAGGSLRLSCAASGFTFDYNAMGWYRQAPGKERELVAAISASGGSTYYADSVKGRYTISRDTAKNTVYLQMNSLKPEYTAVYYCAAKRFSPQHRYDHWGQGTQVTVSS” the “polyreactivity (PSR sort gate)” value was “high polyreactivity”.
With “QVQLVESGGGLVQAGGSLRLSCAASGFTFDYNAMGWYRQAPGKERELVAAISNTGDSTYYADSVKGRFTISRDNAKNTVYLQMNSLKPEDTAVYYCAADSLFYDYWEYDYWGQGTQVTVSS” the “polyreactivity (PSR sort gate)” value was “low polyreactivity”.
For “QVQLVESGGGLVQAGGSLRLSCAASGFTFDYYAMGWYRQAPGKERELVAAINWSGAITYYADSVKGRFTISRDNAKNTVYLQMNSLKPEDTAVYYCAARWGKFYGRFYWGMDYWGQGTQVTVSS”, the “polyreactivity (PSR sort gate)” value was “high polyreactivity”.
For “QVQLVESGGGLVQAGGSLRLSCAASGFTFDYYAMGWYRQAPGKERELVAAITSGSITYYADSVKGRFTISRDNAKNTVYLQMNSLKPEDTAVYSCAAVGLVRYGYWGQGTQVTVSS”, the “polyreactivity (PSR sort gate)” value was “high polyreactivity”.
In the case of “QVQLVESGGGLVQAGGSLRLSCAASGFTFDYYTMGWYRQAPGKEREFVAAITWNGGTTNYADSVKGRCTISRDNAKNTVYLQMNSLKPEDTALYYCADTAYWYFSNDSGRSYDYWGQGTQVTVSS”, the “polyreactivity (PSR sort gate)” value is reported as “low polyreactivity”.
In the case of “QVQLVESGGGLVQAGGSLRLSCAASGFTFEDNTMGGYRQAPGKERELVAAITWGGVSTYYADSVKGRFTISRDNAKKTVYLQMNSLKPEDTAVYYCARDYDVYTVFLMDYWGQGTQVTVSS”, the “polyreactivity (PSR sort gate)” value is reported as “low polyreactivity”.
In the case of “QVQLVESGGGLVQAGGSLRLSCAASGFTFEKYAMGWYRQAPGKERELVAAISQSAGSTYADSVKGRFTISRDNAKNTVYLQMNSLKPEDTAVYYFAARYRYPYYARYGYWGQGTQVTVSS”, the “polyreactivity (PSR sort gate)” value is reported as “high polyreactivity”.
With “QVQLVESGGGLVQAGGSLRLSCAASGFTFENYAMGWYRQAPGKEREFVAAISTRGTSTYYADSVKGRFTISRDNAKNTVYLQMNSLKPEDTAVYYCAARFYYWGQGTQVTVSS” the “polyreactivity (PSR sort gate)” value was “high polyreactivity”.
In the case of “QVQLVESGGGLVQAGGSLRLSCAASGFTFERYAMGWYRQAPGKERELVAAIDWRGVNTYYADSVKGRFTISRDNAKNTVYLQMNSLKPEDTAVYYCAATRPATYASYDYWGQGTQLTVSS”, the “polyreactivity (PSR sort gate)” value is reported as “high polyreactivity”.
For “QVQLVESGGGLVQAGGSLRLSCAASGFTFEWYTMGWYRQAPGKERELVADISGDGSTYYADSVKGRFTISRDNAKNTVYLQMNSLKPEDTAVYYCAASFWGIAMGYWAQGTQVTVSS”, the “polyreactivity (PSR sort gate)” value was “high polyreactivity”.
In the case of “QVQLVESGGGLVQAGGSLRLSCAASGFTFFAYTMGWYRQAPWKERELVAAISWSGAGTYYADSVKGRFTISRDNAKNTVYLQMNSLKPEDTAVYYCNGVPYSGFDYWGQGTQVTVSS”, the “polyreactivity (PSR sort gate)” value is reported as “high polyreactivity”.
With “QVQLVESGGGLVQAGGSLRLSCAASGFTFFFYAMGWYRQAPGKEREFVAATSWIGGGTYYADSVKGRFTISRDNAKNTVYLLMNSLKPEDTAVYYCATDLASYAVGSKYGYWGQGTQVTVSS” the “polyreactivity (PSR sort gate)” value was “low polyreactivity”.
In the case of “QVQLVESGGGLVQAGGSLRLSCAASGFTFFNYAMGWYRQAPGKERELVAAISRSGGGTYYADSVKGRFTISRDNAKNTDYLQMNSLKPEDTAVYYCNKRGTHGYTYRKFDYWGQGTQVTVSS”, the “polyreactivity (PSR sort gate)” value is reported as “high polyreactivity”.
With “QVQLVESGGGLVQAGGSLRLSCAASGFTFFPYAMGWYRQAPGKERELVATITRGGSTNYADSVKGRFTISRDNAKNSVYLQMNSLKPEDTAVYYCNIDKKTPTFDYWGQGTQVTVSS” the “polyreactivity (PSR sort gate)” value was “low polyreactivity”.
For “QVQLVESGGGLVQAGGSLRLSCAASGFTFFSNAMGWYIQAPGKERELVAAITSSGGSTYADSVKGRFTISRDNAKNTVYLQMNSLKPEDTAVYYCAADAQAPPGGFKEYDYWGQGTQVTVSS”, the “polyreactivity (PSR sort gate)” value was “low polyreactivity”.
For “QVQLVESGGGLVQAGGSLRLSCAASGFTFFWYTMGWYRQAPGKERELVAAISDTGGSTYYADSVKGRFTISRDNAKNTVYLQMNSLKPEDTAVYYCAAQYVRYGHYYWGQGTQVTVSS”, the “polyreactivity (PSR sort gate)” value was “high polyreactivity”.
With “QVQLVESGGGLVQAGGSLRLSCAASGFTFFYNAMGWYRQAPGKEREFVAAISGRGGRTYYADSVKGRFTISRDNAKNTVYLQMNSLKPEDTAVYYCNADYYPYGEYDYWGQGTQVTVSS” the “polyreactivity (PSR sort gate)” value was “high polyreactivity”.
With “QVQLVESGGGLVQAGGSLRLSCAASGFTFFYYAMGWYRQAPGKERELVARISSSGGRTYYADSVKGRFTISRDNAKNTVYLQMNSLKPEDTAVYYCNARYYYYYTRYDYWGQGTQVTVSS” the “polyreactivity (PSR sort gate)” value was “high polyreactivity”.
In the case of “QVQLVESGGGLVQAGGSLRLSCAASGFTFGAYAMGWYRQAPGKERELVAAITRSSTSTFYADSVKGRFTISRDNAKNTVYLQMNSLKPEDTAVYYCAARGRPRYYSYAGDYWGQGTQVTVSS”, the “polyreactivity (PSR sort gate)” value is reported as “high polyreactivity”.
In the case of “QVQLVESGGGLVQAGGSLRLSCAASGFTFGENAMGWYRQAPGKERELVAAITGGTDTNYADSVKGRFTISRDNAKNTVYLQMNSLKPEDTAVYYCAAYVPHFAPLGGGGGYDYWGEGTQVTVSS”, the “polyreactivity (PSR sort gate)” value is reported as “low polyreactivity”.
For “QVQLVESGGGLVQAGGSLRLSCAASGFTFGENAMGWYRQAPWKERELVAAITSGDGTSYADSVKGRFTISRDNAKNTVYLQMNSLKPEVTAVYDCAADGGDELYYSTYDYWGQGTQVTVSS”, the “polyreactivity (PSR sort gate)” value was “low polyreactivity”.
With “QVQLVESGGGLVQAGGSLRLSCAASGFTFGGNAMGWYRQAPGKERELVASITSGGSTNYADSVKGRFTISRDNAKNTVYLQMNSLKPEDTAVYYCAAARTGRARRHFDYWGQGTQVTVSS” the “polyreactivity (PSR sort gate)” value was “low polyreactivity”.
With “QVQLVESGGGLVQAGGSLRLSCAASGFTFGGYAMGWYRQAPGKERELVAAISQSGGRTYYADSVKGRFTISRDHAMNTVDLQMISLKPEDTAVYYCAKPSTTYYQRGDYWGQGTQVTVSS” the “polyreactivity (PSR sort gate)” value was “high polyreactivity”.
For “QVQLVESGGGLVQAGGSLRLSCAASGFTFGGYAMGWYRQAPGKERELVAAITWSGGTTYYADSVKGRFTISRDNAKNTVYLQMNSLKPEDTAVYYCAAESTLPIIDRDDYWGQGSQVTVSS”, the “polyreactivity (PSR sort gate)” value was “low polyreactivity”.
In the case of “QVQLVESGGGLVQAGGSLRLSCAASGFTFGIYAMGWYRQAPGKERELVAAINVSDGSTYYADSVKGRFTISRDNAKNTVYLQMNILKPEDTAVYYCAAYLYVTIYTSYREYDYWGQGTQVTVSS”, the “polyreactivity (PSR sort gate)” value is reported as “low polyreactivity”.
For “QVQLVESGGGLVQAGGSLRLSCAASGFTFGLYAMGWYRQAPGKERELVASITWSGGSTYYADSVKGRFTISRDNAKNTVYLQMNSLKPEDTAVYDCAKRLYLITWAASSADDYWGQGTQVTVSS”, the “polyreactivity (PSR sort gate)” value was “low polyreactivity”.
In the case of “QVQLVESGGGLVQAGGSLRLSCAASGFTFGLYAMGWYRQAPGKERELVAVISSSGGSTYDADSVKGRFTISRDNAKNTVYLQMNSLKPEETAVYYCAAEWHDYKFDVTYDYWGQGTQVTVSS”, the “polyreactivity (PSR sort gate)” value is reported as “low polyreactivity”.
For “QVQLVESGGGLVQAGGSLRLSCAASGFTFGNNAMGWYRKAPGKERELVAAISKRGSSTYYADSVKGRFTISRDNAKNTVYLQMNSLKPEDTAVYYCAAEGRRTRYYYWGQGTQVTVSS”, the “polyreactivity (PSR sort gate)” value was “high polyreactivity”.
For “QVQLVESGGGLVQAGGSLRLSCAASGFTFGNYAMGWYRQAPGKERELVAAISSRGGSTYYADSVKGRFTISRDNAKNSVYLQMNSLKPEDTAVYYCNALRLEVDMGYWGQGTQITVSS”, the “polyreactivity (PSR sort gate)” value was “high polyreactivity”.
For “QVQLVESGGGLVQAGGSLRLSCAASGFTFGNYAMGWYRQAPGKERELVAAISSRGGSTYYADSVKGRFTISRDNAKNTVYLQMNSLKPEDTAVYYCNALRLEVDMGYWGQGTQITVSS”, the “polyreactivity (PSR sort gate)” value was “high polyreactivity”.
In the case of “QVQLVESGGGLVQAGGSLRLSCAASGFTFGPKAMGWYRQAPVKERELVAAITFRGDSTYYADSVKVRFTISRDYAKNTVYLQMNCLKPEDTAVYYCATHDRWHHRSLPYEYWGQGTQVTVSS”, the “polyreactivity (PSR sort gate)” value is reported as “low polyreactivity”.
With “QVQLVESGGGLVQAGGSLRLSCAASGFTFGPNTMGWYRQAPGKERELVAAISARGGRTYYADSVKGRFTISRDNAKNTVYLQMNSLKPEDTAVYYCAAPGYVRTGVTYGGYYWGQGTQVTVSS” the “polyreactivity (PSR sort gate)” value was “high polyreactivity”.
For “QVQLVESGGGLVQAGGSLRLSCAASGFTFGPYAMGWYRQAPGKERELVAASSQSGGRTSYADSVKGRFTISRDNAKNTVYLPMNSLKPEDTAVYYCAKRAYGYRSIYRMDYWGQGTQVTVSS”, the “polyreactivity (PSR sort gate)” value was “high polyreactivity”.
